Results published in publication PMC12861225.

B1: Tissue-nonspecific alkaline phosphatase (TNALP): N271Q/N303Q (protein)
parent chain: MISPFLVLAIGTCLTNSLVPEKEKDPKYWRDQAQETLKYALELQKLNTNVAKNVIMFLGDGMGVSTVTAARILKGQLHHNPGEETRLEMDKFPFVALSKTYNTNAQVPDSAGTATAYLCGVKANEGTVGVSAATERSRCNTTQGNEVTSILRWAKDAGKSVGIVTTTRVNHATPSAAYAHSADRDWYSDNEMPPEALSQGCKDIAYQLMHNIRDIDVIMGGGRKYMYPKNKTDVEYESDEKARGTRLDGLDLVDTWKSFKPRYKHSHFIWNRTELLTLDPHNVDYLLGLFEPGDMQYELNRNNVTDPSLSEMVVVAIQILRKNPKGFFLLVEGGRIDHGHHEGKAKQALHEAVEMDRAIGQAGSLTSSEDTLTVVTADHSHVFTFGGYTPRGNSIFGLAPMLSDTDKKPFTAILYGNGPGYKVVGGERENVSMVDYAHNNYQAQSAVPLRHETHGGEDVAVFSKGPMAHLLHGVHEQNYVPHVMAYAACIGANLGHCAPASSAGSLAAGPLLLALALYPLSVLF
B2: Tissue-nonspecific alkaline phosphatase (TNALP): N303Q (protein)
parent chain: B1 parent chain
B3: Tissue-nonspecific alkaline phosphatase (TNALP): N230Q/N271Q/N430D (protein)
parent chain: B1 parent chain
B4: Tissue-nonspecific alkaline phosphatase (TNALP): N430D (protein)
parent chain: B1 parent chain
B5: Tissue-nonspecific alkaline phosphatase (TNALP): N271Q/N430D (protein)
parent chain: B1 parent chain
B6: Tissue-nonspecific alkaline phosphatase (TNALP): N140Q (protein)
parent chain: B1 parent chain
B7: Tissue-nonspecific alkaline phosphatase (TNALP): N303Q/N430D (protein)
parent chain: B1 parent chain
B8: Tissue-nonspecific alkaline phosphatase (TNALP): N140Q/N230Q/N430D (protein)
parent chain: B1 parent chain
B9: Tissue-nonspecific alkaline phosphatase (TNALP): N230Q/N271Q/N303Q (protein)
parent chain: B1 parent chain
B10: Tissue-nonspecific alkaline phosphatase (TNALP): N230Q (protein)
parent chain: B1 parent chain

Tests used:
Details in all cases: glycan lost; control: wild type
[1] = SYPRO Orange thermal shift, pooled purified protein
[2] = weak anion-exchange HPLC with activity-based detection
[3] = remaining pNPP activity after 15 min at 56 °C; homodimeric
[4] = anti-Flag capillary immunoblot of Flag-purified medium, pooled n=6
[5] = pNPP activity of supernatant, normalised to total protein; homodimeric double mutants
[6] = pNPP activity of supernatant, normalised to total protein; homodimeric single mutants
[7] = pNPP activity of supernatant; triple-site mutants

Protein | stability_or_folding, Tm [1] | other: HPLC isoform profile [2] | stability_or_folding, other: remaining activity [3] | expression_or_secretion, fold_change [4] | enzymatic_activity, other: specific activity [5] | enzymatic_activity, other: specific activity [6] | enzymatic_activity [7]
B1 | decreases, 52.9 vs 54.5 | changes | decreases, 12 ± 1 vs 23 ± 4 | decreases, 0.4 vs 1.0 | decreases, 3.9 ± 2.8 vs 13.6 ± 6.6 |  | 
B2 | decreases, 53.7 vs 54.5 | no change |  | decreases, 0.5 vs 1.0 |  | no change | 
B3 |  |  |  |  |  |  | abolishes
B4 | increases, 55.7 vs 54.5 | no change |  | decreases, 0.5 vs 1.0 |  | no change | 
B5 | increases, 55.3, 69.7 vs 54.5 | changes | increases, 63 ± 5 vs 23 ± 4 | decreases, 0.7 vs 1.0 | decreases, 4.3 ± 3.4 vs 13.6 ± 6.6 |  | 
B6 | no change, 54.9 vs 54.5 | no change |  | decreases, 0.4 vs 1.0 |  | no change | 
B7 | increases, 55.3, 70.1 vs 54.5 | changes | increases, 47 ± 13 vs 23 ± 4 | decreases, 0.7 vs 1.0 | decreases, 4.7 ± 4 vs 13.6 ± 6.6 |  | 
B8 |  |  |  |  |  |  | abolishes
B9 |  |  |  |  |  |  | abolishes
B10 | no change, 54.5 vs 54.5 | no change |  | decreases, 0.5 vs 1.0 |  | no change | 
